Tests used:
Experiment in all cases: SEC
[1] = biological target: TmTsaD K166A (Thermotoga maritima, UniProt Q9WXZ2 1-327, K166A)
[2] = biological target: TmTsaD K213A (Thermotoga maritima, UniProt Q9WXZ2 1-327, K213A)
[3] = biological target: TmTsaD S134A (Thermotoga maritima, UniProt Q9WXZ2 1-327, S134A)
[4] = biological target: TmTsaD D165A (Thermotoga maritima, UniProt Q9WXZ2 1-327, D165A)
[5] = biological target: TmTsaD D182A (Thermotoga maritima, UniProt Q9WXZ2 1-327, D182A)
[6] = biological target: T. maritima TsaD (TmTsaD), wild type (Thermotoga maritima, UniProt Q9WXZ2 1-327)

Measured: binding result

TmTsaD K213A, sequence (Q9WXZ2 whole entry K213A): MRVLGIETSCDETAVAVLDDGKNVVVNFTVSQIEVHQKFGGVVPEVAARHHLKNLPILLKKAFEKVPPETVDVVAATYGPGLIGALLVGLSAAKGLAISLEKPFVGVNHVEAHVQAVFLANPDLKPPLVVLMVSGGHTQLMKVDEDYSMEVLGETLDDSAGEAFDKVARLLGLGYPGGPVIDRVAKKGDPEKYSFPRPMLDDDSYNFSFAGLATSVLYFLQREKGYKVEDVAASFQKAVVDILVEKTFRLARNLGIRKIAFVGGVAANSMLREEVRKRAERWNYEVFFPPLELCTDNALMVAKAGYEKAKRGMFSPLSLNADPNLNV
T. maritima TsaD (TmTsaD), wild type, sequence (Q9WXZ2 whole entry): as the sequence (Q9WXZ2 whole entry K213A) above, with A213K counted along it
TmTsaD D165A, sequence (Q9WXZ2 whole entry D165A): as the sequence (Q9WXZ2 whole entry K213A) above, with D165A, A213K counted along it
TmTsaD D182A, sequence (Q9WXZ2 whole entry D182A): as the sequence (Q9WXZ2 whole entry K213A) above, with D182A, A213K counted along it
TmTsaD S134A, sequence (Q9WXZ2 whole entry S134A): as the sequence (Q9WXZ2 whole entry K213A) above, with S134A, A213K counted along it
TmTsaD K166A, sequence (Q9WXZ2 whole entry K166A): as the sequence (Q9WXZ2 whole entry K213A) above, with K166A, A213K counted along it

B1: T. maritima TsaB (TmTsaB), wild type (natural protein, Thermotoga maritima)
chain: MNVLALDTSQRIRIGLRKGEDLFEISYTGEKKHAEILPVVVKKLLDELDLKVKDLDVVGVGIGPGGLTGLRVGIATVVGLVSPYDIPVAPLNSFEMTAKSCPADGVVLVARRARKGYHYCAVYLKDKGLNPLKEPSVVSDEELEEITKEFSPKIVLKDDLLISPAVLVEESERLFREKKTIHYYEIEPLYLQKSIAELNWEKKKRG
not listed: [6]
binds: all other assays above

B2: TmTsaB deletion mutant lacking the C-terminal helix and tail Leu189-Gly206 (domain or fragment, Thermotoga maritima, UniProt Q9WZX7 1-188, looked up)
chain: MNVLALDTSQRIRIGLRKGEDLFEISYTGEKKHAEILPVVVKKLLDELDLKVKDLDVVGVGIGPGGLTGLRVGIATVVGLVSPYDIPVAPLNSFEMTAKSCPADGVVLVARRARKGYHYCAVYLKDKGLNPLKEPSVVSDEELEEITKEFSPKIVLKDDLLISPAVLVEESERLFREKKTIHYYEIEP
binds: [6]

From PMC6614819 (Nucleic Acids Research, 2019)
